Data set [1] has as its system hemG knockout E. coli strain. It counts as cell-based.
For data set [2], the system named is transgenic soybean plants. The experiment in a line: S-3100 tolerance of transformed soybean plantlets at five weeks. It counts as in vivo. Also on record: key to Tolerance score to S-3100 at 5 weeks: 0 for poor tolerance, high damage, low green coloration; 1 for some tolerance, average damage, moderate green coloration; 2 for good tolerance, low damage, high green coloration. As to conditions: for tolerance to the PPO herbicide in high-throughput screening at five weeks: S-3100, over the constructs with different transit peptides; for Tolerance score to S-3100 at 5 weeks: day four post application. As for the experimental part:
(§1) The microbial HemY PPO enzymes were expressed in transgenic soybean plants, and the transgenic plants were analyzed for PPO herbicide tolerance. […] For plant transformation, the nucleotide sequences encoding the HemY PPO enzymes were codon optimized for dicot expression. This permitted the side-by-side comparison of the seven different HemY PPO enzymes with thirty-nine different targeting peptides using the same promoter and 3′UTR elements for gene expression
(§2) The plant transformation constructs were used to transform soybean excised embryos (germplasm A3555) using A. tumefaciens and standard methods known in the art. Four hundred explants were inoculated for each construct resulting in twelve containers per construct. A sterile PPO herbicide solution was used for herbicide tolerance testing. The herbicide solution consisted of 0.3 g of S-3100 in crop oil concentrate (5.0 mL) and 495 mL of deionized water. This was filtered through a 0.45 micron Nalgene® Rapid-Flow™ Tissue Culture Filter Unit and Surfactant-Free Cellulose Acetate membrane filter unit (VWR, Radnor, Pa., USA). The resulting sterile solution was shaken before application.
At five weeks post-transformation, four of the twelve plant containers per construct were sprayed with two passes of the sterile PPO herbicide solution. The treated plantlets were then enclosed in the container and received at least 15 hours of light exposure post spray each day for four days. At the end of day four post application of S-3100, the treated plantlets were photographed and scored on a visual scale of green coloration (green coloration was representative of healthy photosynthetic plant tissue as compared to photo-bleached tissue) versus damage. The scoring values were 0 for poor tolerance, high damage, low green coloration; 1 for some tolerance, average damage, moderate green coloration; and 2 for good tolerance, low damage, high green coloration. The results of herbicide application of S-3100 at five weeks is presented in Table 5, where n.d. indicates the analysis was not conducted.

Data set [3] deals with transgenic soybean plants. Description: S-3100 herbicide injury of R0 transgenic soybean plants at eleven weeks. As to conditions: for tolerance to the PPO herbicide, R0 plants at eleven weeks: S-3100, injury rating compared with non-transgenic control (30% or above); for Tolerance score to S-3100 at 11 weeks (herbicide injury rating): R0 plants, seven days after treatment. The data set is classed as in vivo. Here is the method: as §1, §2
Plants in the non-sprayed containers corresponding to constructs having a high passing score of 2 and a few fails as negative controls were transplanted at approximately 7 weeks post transformation. The R0 plants were grown in a greenhouse under long-day nursery conditions (18 hr light at 80° F. then 6 hr dark at 74° F.) for approximately four weeks. At eleven weeks, the R0 plants were sprayed with two passes of the same herbicide solution (0.3 g of S-3100) described above. Herbicide injury ratings were collected seven days after treatment. Any injury rating of 30% or above was equivalent to non-transgenic soybean injury ratings. The results of the herbicide tolerance application at eleven weeks to the R0 plants are presented in Table 6, where n.d. indicates the analysis was not conducted.

The nature of data set [4]: PPO enzyme assay, apparent Km for substrate. It counts as biochemical. As to conditions: substrate protoporphyrinogen.
Setting [5] is: acifluorfen, flumioxazin, lactofen, or fomesafen, saturating amount.

Where two headings read alike, the source gives them in different places.

B1: R2N70: microbial HemY protoporphyrinogen oxidase, SEQ ID NO:3 (protein, listed as Bacillus subtilis)
chain: MSDGKKHVVIIGGGITGLAAAFYMEKEIKEKNLPLELTLVEASPRVGGKIQTVKKDGYIIERGPDSFLERKKSAPQLVKDLGLEHLLVNNATGQSYVLVNRTLHPMPKGAVMGIPTKIAPFVSTGLFSLSGKARAAMDFILPASKTKDDQSLGEFFRRRVGDEVVENLIEPLLSGIYAGDIDKLSLMSTFPQFYQTEQKHRSLILGMKKTRPQGSGQQLTAKKQGQFQTLSTGLQTLVEEIEKQLKLTKVYKGTKVTKLSHSGSGYSLELDNGVTLDADSVIVTAPHKAAAGMLSELPAISHLKNMHSTSVANVALGFPEGSVQMEHEGTGFVISRNSDFAITACTWTNKKWPHAAPEGKTLLRAYVGKAGDESIVDLSDNDIINIVLEDLKKVMNINGEPEMTCVTRWHESMPQYHVGHKQRIKELREALASAYPGVYMTGASFEGVGIPDCIDQGKAAVSDALTYLFS
With B1, in data set [1] (acifluorfen and S-3100), the “growth rate of hemG knockout E. coli strain in presence of PPO herbicide” value (“growth rate” below) is recorded as “slower”. In addition, the “tolerance to acifluorfen and S-3100 compared with strain containing R2N30 or R2N40” value in data set [1] (acifluorfen and S-3100) is reported as “much better”. In data set [2], the “tolerance to the PPO herbicide in high-throughput screening at five weeks” value is “provided tolerance”. For the same molecule, the “Tolerance score to S-3100 at 5 weeks” value in data set [2] (targeting peptide TP2) worked out at 2; in data set [2] (targeting peptide TP3) it was 1; in data set [2] (targeting peptide TP4), 0; in data set [2] (targeting peptide TP6), 0; in data set [2] (targeting peptide TP8), 0; in data set [2] (targeting peptide TP16) it was 0. Further, the figures for the “Tolerance score to S-3100 at 5 weeks” value in data set [2] (targeting peptide TP21), in data set [2] (targeting peptide TP31) and in data set [2] (targeting peptide TP33) were 0, 1 and 0, respectively. Besides, the “tolerance to the PPO herbicide, R0 plants at eleven weeks” value in data set [3] is given as “did not provide tolerance”. The “Tolerance score to S-3100 at 11 weeks (herbicide injury rating)” value in data set [3] (targeting peptide TP2) came out at 30%.

B2: E. coli HemG: E. coli PPO enzyme HemG (protoporphyrinogen IX dehydrogenase; GenBank Accession No. WP_021498199), SEQ ID NO:76 (protein, listed as Escherichia coli)
chain: MKTLILFSTRDGQTREIASYLASELKELGIQADVANVHRIEEPQWENYDRVVIGASIRYGHYHSAFQEFVKKHATRLNSMPSAFYSVNLVARKPEKRTPQTNSYARKFLMNSQWRPDRCAVIAGALRYPRYRWYDRFMIKLIMKMSGGETDTRKEVVYTDWEQVANFAREIAHLTDKPTLK
What is called Km is the concentration of substrate that gives half-maximal velocity. As to B2, the “growth rate” value in data set [1] (setting [5]) is listed as “normal growth rates”. For the same molecule, the Km in data set [4] came out at 1.6 µM.

B3: R1N333: microbial HemY PPO, SEQ ID NO:17 in bacterial assay; truncated SEQ ID NO:21 in soybean (protein, listed as Bacillus atrophaeus)
chain: MSDGKKHLVIIGGGITGLASAFYMEKEIREKNLPLSVTLVEASPRVGGKIQTARKDGYIIERGPDSFLERKKSAPELVEDLGLEHLLVNNATGQSYVLVNETLHPMPKGAVMGIPTKIAPFMSTRLFSFSGKARAAMDFVLPASKPKEDQSLGEFFRRRVGDEVVENLIEPLLSGIYAGDIDRLSLMSTFPQFYQTEQKHRSLILGMKKTRPQGSGQQLTAKKQGQFQTLKTGLQTLVEELENQLKLTKVYKGTKVTNISRGEKGCSIALDNGMTLDADAAIVTSPHKSAAGMFPDLPAVSQLKDMHSTSVANVALGFPQEAVQMEHEGTGFVISRNSDFSITACTWTNKKWPHSAPEGKTLLRAYVGKAGDESIVELSDNEIIKIVLEDLKKVMKIKGEPEMTCVTRWNESMPQYHVGHKQRIKKVREALAASYPGVYMTGASFEGVGIPDCIDQGKSAVSDVLAYLFE
As to B3, in data set [1] (setting [5]), the “growth rate” value was “did not grow”. Moreover, the “tolerance to the PPO herbicide in high-throughput screening at five weeks” value in data set [2] is reported as “did not provide tolerance”. Further, the “Tolerance score to S-3100 at 5 weeks” value in data set [2] (targeting peptide TP2), in data set [2] (targeting peptide TP3), in data set [2] (targeting peptide TP4), in data set [2] (targeting peptide TP6), in data set [2] (targeting peptide TP7) and in data set [2] (targeting peptide TP8) was 0 each time. Besides, the “Tolerance score to S-3100 at 5 weeks” value in data set [2] (targeting peptide TP9) is 1; in data set [2] (targeting peptide TP11), 0; in data set [2] (targeting peptide TP12), 1; in data set [2] (targeting peptide TP13) it was 0; in data set [2] (targeting peptide TP14), 0; in data set [2] (targeting peptide TP15) it was 0. The “Tolerance score to S-3100 at 5 weeks” value in data set [2] (targeting peptide TP16), in data set [2] (targeting peptide TP17), in data set [2] (targeting peptide TP18), in data set [2] (targeting peptide TP19), in data set [2] (targeting peptide TP21) and in data set [2] (targeting peptide TP22) was 0 in each case. Further, the “Tolerance score to S-3100 at 5 weeks” value in data set [2] (targeting peptide TP23) is 1; in data set [2] (targeting peptide TP24) it was 0; in data set [2] (targeting peptide TP25), 0; in data set [2] (targeting peptide TP26), 0; in data set [2] (targeting peptide TP27), 1; in data set [2] (targeting peptide TP28), 0. Also, the “Tolerance score to S-3100 at 5 weeks” value in data set [2] (targeting peptide TP29) worked out at 1; in data set [2] (targeting peptide TP30), 0; in data set [2] (targeting peptide TP31) it was 1; in data set [2] (targeting peptide TP32), 0; in data set [2] (targeting peptide TP33) it was 0; in data set [2] (targeting peptide TP34) it was 1. Moreover, in data set [2] (targeting peptide TP36), the “Tolerance score to S-3100 at 5 weeks” value turned out to be 1. In addition, the “tolerance to the PPO herbicide, R0 plants at eleven weeks” value in data set [3] is reported as “did not provide tolerance”. The “Tolerance score to S-3100 at 11 weeks (herbicide injury rating)” value in data set [3] (targeting peptide TP8), in data set [3] (targeting peptide TP9) and in data set [3] (targeting peptide TP14) was 35% in each case.

For the origin of these results see patent publication US11319551B2, “Methods and compositions for PPO herbicide tolerance in plants” (Monsanto Technology LLC, priority 2015, dated 2022).
